Assay: label from the status in PepcDB records

| Sequence | protein production |
| --- | --- |
| MAGFVPLRWPISRMSSAVPRYIVGIDLGTTHTVVSYADGGDPSRIEPLFLEQLVAPGQVAGRPLLPSVRYHPATGELAEADTALPWPVEETAPGCRPVIGEFARQLGSRSRGRLVASAKSWLCHTGVDRTADILPWGAPDEVPKVSPVEASASFLRHVRCAWNHRFPAHPLETQDVIVTIPASFDDAARALTVEAARRAGLANVRLLEEPQAACYDFLWTYRGRLAETLEGVNLLLVCDVGGGTTDFTLIRVDAGGSEPELERIAVGNHLMLGGDNIDLTLAHRLEPRLTGAERSLSATDLILLAEQCRRAKETLLAEQGPESVTVTLLGKGGGLIGGARSVELSRHEVLEVVLDGFFPRVGADAVPERRSGVVEFGLPYAADPAITRHAAAFLIRHRNDAGGAAPDALLLNGGVFHSPVIAGRMAEVVGSWCGRTPVMLRNPRPDQAVAFGAVAFGLSRRGLAVRRIGGGSARAYYLLVGDANERSRRGVCILPRGAAEGQEWTVERRNFLLSVGRPVRFHVFSSTVDSGHAPGDLAVLDEAGFGELPPLAVALQAQEQGDVEVRLAARLTAIGTLQLQCVAVGDPEQRWDLELQLRGGGPRPTASASLHPRAAEAQEHIGLIFGKKTRQFGPKAVKTLRNDLEKILGKREDWDTALCRELYAALLEGAPHRRRSADHERLWLSLAGYCLRPGFGAPLDDWRVGQVWNLYSQGLQFVNEAQNWSEWWIVWRRIAGGLRAEAQQRLFADVAGFIDPVRARRGNAEALAKKRAFEDMVRLAASLERLSAGDKTMLGGWLVQRLDKAPDSAELWWALGRVGARAPFHGSAHNLVAREVVEDWVELALQRDWKRQGFVAFAATLLARLTGDRERDLDATLRNRVAEKLVASSAPEIWLELVTEVRGLDASDEKRIFGEGLPPGLRLVDSAWGALEHHHHHH | failed |
| MDSYSITNVKYLDPTELHRWMQEGHTTTLREPFQVVDVRGSDYMGGHIKDGWHYAYSRLKQDPEYLRELKHRLLEKQADGRGALNVIFHCMLSQQRGPSAAMLLLRSLDTAELSRCRLWVLRGGFSRWQSVYGDDESVTAGYLPDLWR | not failed |
| MVEMNKRGQFFIIGGVILSIGLILFFLLGFNSYTSDGSYLTVFKMKDVKNSIESCLINSLTSNSNLSKNLDMLKNNYKDEGIEINYKKIIFSNIRYEAKNLTFNFSLYNGNFSYNISNYGFGGAFNGSLNVSNYVFSKNLLLNISENGSVTGSFNITGSYVNVFVYDRFGNLILNETIYNNSNEKSLYYYILNVSKEGILLYLLWQRMFLTTHWQKMYPL | failed |
| MRDSFGDWAEKFLKSKEADGVSVSQLNSYKNYCRNHLSPLYMKSLSEILPADIQSIINETKLAKNTLKAIRNTASQIFRLAIENRAIDFNPADYVRIPKIALEHHHHHH | not failed |
| MKILRRTITGAATGLLLALPGVALAGTTLRVASEEAFATPAKVAAQSALEHVEKTLPDATGGEVSVQLYPGGALGSEKELIKALADGTVDAMVLSPGNAAGIVPEVQLFSASYLFESYDHARAVIKDDAFFEALAQIIAEKQAGFQLAGIGLTGTRNYYSRSRAVETIEDLSGVKMRVMSSPTEFKVWSELGTLPTTIPAPEIYTSLQTGVVDAAESSLPAISGSKYYEVAPYISLTQHQFNLHLFLVSDIAMSRLSEGQQAAVLQAFREAGHIEIDEAIRLSDEVLAFLRERPGVTVTEVDTAPFAQKLRAVQDEVATGLGVEPLLEIIRSHGTQG | failed |
| MSLKVVIGYLALDDWEFESLFPTIEWKYLTHINASFARVKADGTLNINPVRKRIESVRETAHKHNVKILISLAKNSPGEFTTAINDPKARKELIQQIIAFTKEYKLDGFDIDYEEYDNWDKNFPSLLVFARGLYLAKEKNMLMTCAVNSRWLNYGTEWEQYFDYINLMSYDRGAFTDKPVQHASYDDFVKDLKYWNEQCRASKSKIVGGLPFYGYSWEESLQGAVDDVRGIRYSGILKHLGNEAADKDNIGKTYYNGRPTIANKCKFIKENDYAGVMIWQLFQDAHNDNYDLKLINVVGREMMEEGHHHHHH | not failed |
| MLKKYIPLVARSFLAVIFIYAGVNKVFNFAQTSESMAKAGLPIVGVLLIFTIAFQILGGLSIILGYKAEIGAILLIIFLIPATIVFHNPFADPSQFNNFFKNLSIIGGLLLILAYGSGTLSLEASDRSSYVSQPEE | failed |
| MNILLRLQLFFQITGHYASYFLAYIFETIFFLIFVFVSLIAMIYLFRKYMARLQLRYGPNRVGKFGSLQLIADAIKLVGKESILPKLRDDFAYKTAPYIVFIGLVVGFILIPYGDFYWIGSLTITHSDVSLILFFGAIAMMPIGEILAGISSHNKYALLGAMRGVAKDVSFEVPMMLSAIALVMMDSAVNKTPLEFSSLVSTQFIPFGILQPLGLFVFMVAMIARSSYTPFDLSESDSEIVSGYSTEYSGMRFGLFYMGMFGSIFLGSLVISLLYLGGYNGPYSSYAGFIYLLIKGLIMVLISFLIWLSMPRIRIDRFVNFGWKILLPIAIINLIWAGFLTLGVIS | failed |
| MKFDESKTLLPVRKPVNGNRKTAGYKLWVLIAVLLLAFGSMLTGSVSLKGIGLFHSADGVNAFSFGDDLDVLEIEEREKVVRQMWDVYGRSGGVKVPRFWREAFEAAYEFLISDSAAVRNAAVSDIAKLSLVRFVKSESTSAQPNLH | failed |
| MVQSAPASEIAALILRGFDDYREQFREITDGARARFEQAQWQEAQRASAQRINLYEEKVAETVAGLRAGLADSELLDVERWPIIKSAYIAQIDLRLDDELAETWFNSIFCGLFSHDNISDGTMFVHTTRPSLRAHARAPYTRTYRPGGDLRQALEKIFDDYRFDVPYDDRERDLERIDALLHSNLPDWVCKDPDLAIELIGSVFYRNKGAYLVGRLFTPDEQWPLVFPLLHREDHGIQFDTVITDEAEVSIIFSFTRSYFMVDVPVPAELVAFLKRLLPGKHLAELYTSIGFYKQGKSEFYRALINHLATTDDRFVMAPGVRGMVMSVFTLPGFNTVFKIIKDRFNPSKSVDHATVIQKYQLVKNHDRVGRLADTQQFADFRFPVSKFEPECLAELLEVAPSTVVMEGDVVLIRHCWTERRMTPLNIYLENASEAQTREALNDYGLAIKQLAAANIFPGDMLLKNFGVTRHGRVVFYDYDEICYLTEVNFRYIPEPRFPEDEMSSEPWYSVGPNDVFPEEFPRFLFVDLNQRRLFAKLHGNLYDAKYWQGLQEQIREGKVIDVFPYRRQETPEQLLG | failed |
| MITIITLLLVVLISAIIVRIGAVALEMTGLSRDVAAFQAQSAFSGVGFTTSESEYVVSHPVRRRIIRILMLLGSAGVTSAIATLVLSFVGTTKEEAGYRMVVLLIGLLALYLFFRSKFIERVMRKAIKKGLSRLAPSLRVIDYSQLLGITRGYSIVQIKVKRRSWLADKTLRDLQLDKEGVLVLGIYRKVNGRRVYLGAPHGSTKVLPGDELILYGPEDVLMSLSKRLKGAKGEKEHVEAMEMAKARRVQEEREAGISV | failed |
| SAQEKMELDLELPPGTGGSPAEGGGSGGGGGLRRSNSAPLIHGLSDTSPVFQAEAPSARRNSTTFPSRHGLLLPASPVRMHSSRLHQIKQEEGMDLINRETVHEREVQTAMQISHSWEESFSLSDNDVEKSASPKRIDFIPVSPAPSPTRGIGKQCFSPSLQSFVSSNGLPPSPIPSPTTRFTTRRSQSPINCIRPSVLGPLKRKCEMETEYQPKRFFQGITNMLSSDVAQLSDPGVCVSSDTLDGNSSSAGSSCNSPAKVSTTTDSPVSPAQAASPFIPLDELSSK | not failed |
| MSPPARKLDPWTLLLWLGLAAVSLVALYSTTHGPAAEYIGPGVQDNFARQFLWIGVSIAGIAATLLVPVRFLRYAAYPAYAATLVLLVLCLVMGVEVHGTRAWLALGPLRLQVSELAKVGTVLAVAQLLSERHTRAGQDLSFALKAAGLIVAPALLVILQNDLGTALVFFGLVPIMLFWSGLSLSVLLLMVSPAIAGYFALVSTPAALGFAVLFTGGLWAYSGRRSIAALAATFTAGVTALISFVLRKILQPYQVDRLLSFTNPGAEQFRQGVGFHLVQSKAALYSGGIWGTGFMQGPQTQGAYVPEQTTDFIFSVVAEEFGLVGSLVVLGLLAALLLRLIKLGADVKHPFGSIVAAGAVGVYLIHIFINIGMVTGMLPVIGLPLPFLSYGGSAMLANTALLAIVLNTHMRREDLSIYGY | failed |
| MTEDERFAWLQLAFTPYIGAESFLLLMRSFGSAQNALSAPAEQVAPAVRHKHALEAWRNAEKRALARQAAEAALEWEMRDGCRLMLLQDEDFPEMLTQGLTAPPVLFLRGNVRLLHKPSAAIVGSRHATPQAMRIAKDFGRALGGKGIPTVSGMASGIDTAAHQGALEAEGGTVAVWGTGIDRIYPPANKNLAYEIAEKGLIVSEFPIGTRPYAGNFPRRNRLIAALSQVTLVVEAALESGSLITAGLAAEMGREVMAVPGSIDNPHSKGCHKLIKDGAKLTECLDDILNECPGLLQNTGASSYSINKDTPDTGRRAVQTAYAPPPAAKMPSEGAAGGTAVGGILDKMGFDPVHPDVLAGQLAMPAADLYAALLELELDGSVAAMPGGRYQRIRT | failed |
| KNRIGTKALNFTYTLASGAQGSLYQLKAEYLLLFINNPGCQACTETIEGLKNAPIINQLLQEKKLVLLSIYPDEELDEWKKHLSEFPNEWINGYDKKFTIKEEQVYDLKAIPTLYLLDKDKTVLLKDATAPAIEAYLMQH | not failed |
| MKKFKFTLFSLLVIIFSGLLIQRFSGYFYTTPVGIVKSVKIIDSEQLLTVKLVNNTKKTVVVKVKFNGNESTNPVFNKNNQILLDNSTKKWEFISLKRDGYTFILVVSFVSLVLGIAGKKGFFSLVGILFNIIFLFFLLWINQRNRSINLLLLISIYTIIAIIISTGTLYGLKKIDLRKVLATIFSVFLSYFITTITMKLLNDQGLRYEEMQFLTRPYRTVFLASLMLGGIGAALDNVVVIISSLDQLVRHTPEINTKELIESGKNIASDTTTSMINVLLFAYLSSATPFFIFYLANGWDFVETFKMHLSLEIMRILCGGLAILFTIPSSFLFFLLFKKIKKEGENR | failed |
| MKKKYFGTDGIRGKVGDFPITPDFFLRLGYAVGKVLLASDRQLAADKRPTVLIGKDTRISGYMLESALEAGFSAAGVDVLLSGPLPTPAVAYLVRALRIQAGAVISASHNPFDDNGIKFFSSAGSKLPDSMELQIEAELDQPMKTTPSIKLGRVQRLRDAAGRYIEFCKSTFPNQLDLRGLRIVVDCANGADYHIAGHVMHELGADVITTHASPDGFNINYECGATHIETLQGSILQHKADIGIAVDGDGDRVLMVSREGVLYDGDSLAYIIAKHRQQLGELQGGVAGTLMTNLAVEQAFERLGIPFARANVGDRYVSELLQQNDWYLGAENSGHIICRDKHTTGDGIISALQVLYALRDTGLTLADFMRDVPFFPQRLINVKVSGNFDFRSNPAVAACKNEAEQALGNDGRILLRASGTEPLIRVMVEGKVLQQTDYWAEKIAETIRQQAASSMTGS | failed |
| MEQQKDYIELYENEELIEIREARMDDLDTIAKFNYNLAKETEGKELDMDVLTKGVKALLLDERKGKYHVYTVFDKVVAQIMYTYEWSDWRNGNFLWIQSVYVDKEYRRKGIFNYLFNYIKNICDKDENIVGMRLYVEKENINAKATYESLNMYECDYNMYEYEVIHS | failed |
| NMTISDIQHAPDYALLSNDEQQLCIQLKILPKPYLVLKEVMFRELLKTGGNLSKSACRELLNIDPIKANRIYDFFQSQNWM | not failed |
| MSASHFLTIIKPASLAVLLLLAAGFWVLHGFIMPIAWAVVLAFTVWPWYEHVYQRAPCWMRGGWLPLAMTLLMMVLLMVPATFGVLVLGHEVQMLHRLLIKVQSSGIGAPDWLIQLPWVGGWIKETWSETFGNPETIKNALNALGMGTVFSYTRDLAAQVLHRFMSGFVTLLALFFIFRDGHGLGRQILDRSVRLFGSAGARYARHAVTAVRGTVNGMLLVGIGKGVVLGLGYWAVGLSQPVLLGTLTAVVALVPFAAKLVFGAASIYLIVQGHAMAGIVLVVYGFIITLIADNYVRPTLIGGAANIPFLPTLLGIFGGVEAMGFVGLFIGPTVMAILISLWRDWNDETRLPSA | failed |
| MATAPRPLREQYLHFQPISTRWHDNDIYGHVNNVTYYAFFDTAVNTYLIERGGLDIQGGEVIGLVVSSSCDYFAPVAFPQRIEMGLRVARLGNSSVQYELALFLEGQREACAAGRFVHVFVERRSSRPVAIPQELRDALAALQSSAQ | not failed |

From a protein production outcome set (Wang et al. 2014)
